± gives the uncertainty stated by the source.
Experiment: self-splicing fitness, log relative to wild type (ln ratio); higher = more splicing; Tetrahymena group I intron in knt gene, E. coli kanamycin selection, DiMSum; sequences stand for … in CUCUCU…GGAGGGAAAAGUUAUCAGGCAUGCACCUGGUAGCUAGUCUUUAAACCAAUAGAUUGCAUCGGUUUAAAAGGCAAGACCGUCAAAUUGCGGGAAAGGGGUCAACAGCCGUUCAGUACCAAGUCUCAGGGGAAACUUUGAGAUGGCCUUGCAAAGGGUAUGGUAAUAAGCUGACGGACAUGGUCCUAACCACGCAGCCAAGUCCUAAGUCAACAGAUCUUCUGUUGAUAUGGAUGCAGUUCACAGACUAAAUGUCGGUCGGGGAAGAUGUAUUCUUCUCAUAAGAUAUAGUCGGACCUCUCCUUAAUGGGAGCUAGCGGAUGAAGUGAUGCAACACUGGAGCCGCUGGGAACUAAUUUGUAUGCGAAAGUAUAUUGAUUAGUUUUGGAGUACUCGUGGUCG
Method in brief: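 Pooled colonies went to amplicon sequencing on an Illumina HiSeq 2500 after six replicate transformations. The plates were LB agar with 100 μg/mL carbenicillin, 50 μM IPTG and 0.2% rhamnose, with or without 25 μg/mL kanamycin, incubated overnight at 37°C or 30°C. The E. coli BL21(DE3) library had all eight P1ex-region intron nucleotides randomised, the intron placed in the knt kanamycin-resistance gene on pET-22b(+). DiMSum fitness is the error-weighted combination of replicate fold changes, kanamycin against none, normalised to wild type.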

Sequence	self-splicing fitness (ln) (30 °C)	self-splicing fitness (ln) (37 °C)
AUUGAGCAAUAUUACGAGCG	-3.1 ± 0.27	
AUUGAGCAAUAUUACGAUCA	-1.91 ± 0.16	-2.07 ± 0.17
AUUGAGCAAUAUUACGCGAA	-3.61 ± 0.37	-1.28 ± 0.26
AUUGAGCAAUAUUACGGACA	-2.68 ± 0.31	
AUUGAGCAAUAUUACGGGCU	-4.12 ± 0.36	-2.25 ± 0.42
AUUGAGCAAUAUUACGGUGU	-1.92 ± 0.15	-2.31 ± 0.37
AUUGAGCAAUAUUACGGUUG	-3.28 ± 0.31	-2.48 ± 0.29
AUUGAGCAAUAUUACGUCAG	-2.96 ± 0.2	-2.3 ± 0.45
AUUGAGCAAUAUUACGUUCC	-1.94 ± 0.23	-2.1 ± 0.3
AUUUAGCAAUAUUACGAAGA	-2.11 ± 0.4	-1.36 ± 0.34
AUUUAGCAAUAUUACGACAC	-0.837 ± 0.12	-0.373 ± 0.14
AUUUAGCAAUAUUACGACGC	-1.8 ± 0.19	-0.352 ± 0.21
AUUUAGCAAUAUUACGAGCU	-1.88 ± 0.17	-0.00846 ± 0.15
AUUUAGCAAUAUUACGAUCG	-1.76 ± 0.15	-0.669 ± 0.12
AUUUAGCAAUAUUACGCCAC	-3.24 ± 0.48	-1.36 ± 0.35
AUUUAGCAAUAUUACGCCCU	0.0873 ± 0.082	0.37 ± 0.11
AUUUAGCAAUAUUACGGACC	-1.57 ± 0.2	-1.29 ± 0.27
AUUUAGCAAUAUUACGGAUA	-2.18 ± 0.27	-1.53 ± 0.27
AUUUAGCAAUAUUACGGCCA	-0.814 ± 0.21	-0.925 ± 0.23
AUUUAGCAAUAUUACGGGGC	-3.54 ± 0.41	
AUUUAGCAAUAUUACGUAAC	-2.52 ± 0.18	-2.58 ± 0.2
AUUUAGCAAUAUUACGUAAG	-2.8 ± 0.18	0.197 ± 0.18
AUUUAGCAAUAUUACGUAGA	-2.08 ± 0.15	-2.48 ± 0.23
AUUUAGCAAUAUUACGUCCA	-0.944 ± 0.15	-0.558 ± 0.27
AUUUAGCAAUAUUACGUCCG	-1.76 ± 0.18	-0.728 ± 0.22
AUUUAGCAAUAUUACGUCUG	-1.73 ± 0.11	-1.15 ± 0.11

Sequence	self-splicing fitness (ln) (30 °C)	self-splicing fitness (ln) (37 °C)
AUUUAGCAAUAUUACGUGCA	-1.05 ± 0.11	-0.306 ± 0.16
AUUUAGCAAUAUUACGUUGC	-3.26 ± 0.41	
CAAAAGCAAUAUUACGAACG	0.409 ± 0.072	0.483 ± 0.095
CAAAAGCAAUAUUACGAAGC	-4.63 ± 0.36	-2.27 ± 0.21
CAAAAGCAAUAUUACGACAU	-2.345 ± 0.013	-1.34 ± 0.033
CAAAAGCAAUAUUACGACCU	-1.79 ± 0.095	-0.569 ± 0.084
CAAAAGCAAUAUUACGACUG	-0.738 ± 0.068	0.168 ± 0.099
CAAAAGCAAUAUUACGCAAG	-1.52 ± 0.12	0.0344 ± 0.12
CAAAAGCAAUAUUACGCAGU	-4.31 ± 0.24	-3.64 ± 0.27
CAAAAGCAAUAUUACGCCAU	-3.4 ± 0.2	-2.61 ± 0.23
CAAAAGCAAUAUUACGCCUU	-3.67 ± 0.17	-0.986 ± 0.12
CAAAAGCAAUAUUACGCGCC	-2.04 ± 0.17	-0.789 ± 0.19
CAAAAGCAAUAUUACGCGGA	-3.43 ± 0.25	-2.08 ± 0.17
CAAAAGCAAUAUUACGCGGC	-2.85 ± 0.21	-2.21 ± 0.28
CAAAAGCAAUAUUACGCUUC	-3.84 ± 0.33	-1.99 ± 0.24
CAAAAGCAAUAUUACGGCCC	-2.01 ± 0.31	-1.06 ± 0.3
CAAAAGCAAUAUUACGGCUU	-3.44 ± 0.11	-2.39 ± 0.11
CAAAAGCAAUAUUACGGUAU	-3.42 ± 0.15	-2.67 ± 0.15
CAAAAGCAAUAUUACGUAAA	-1.47 ± 0.092	-1.32 ± 0.11
CAAAAGCAAUAUUACGUAUU	-4.13 ± 0.18	-2.78 ± 0.15
CAAAAGCAAUAUUACGUGUU	-3.61 ± 0.13	-2.37 ± 0.13
CAAAAGCAAUAUUACGUUCA	-1.67 ± 0.11	-0.976 ± 0.1
CAAAAGCAAUAUUACGUUGU	-3.3 ± 0.11	-2.4 ± 0.14
CAAAAGCAAUAUUACGUUUG	-3.08 ± 0.14	-2.55 ± 0.18
CAACAGCAAUAUUACGAAUC	-3.47 ± 0.13	-2.41 ± 0.14
CAACAGCAAUAUUACGACCA	-1.66 ± 0.099	-0.585 ± 0.097

Sequence	self-splicing fitness (ln) (30 °C)	self-splicing fitness (ln) (37 °C)
CAACAGCAAUAUUACGACGU	-0.776 ± 0.042	-0.12 ± 0.054
CAACAGCAAUAUUACGAGCC	-3.76 ± 0.46	-1.95 ± 0.29
CAACAGCAAUAUUACGAUAA	-2.08 ± 0.1	-1.67 ± 0.11
CAACAGCAAUAUUACGAUCU	-2.02 ± 0.13	-0.986 ± 0.12
CAACAGCAAUAUUACGAUGG	-0.426 ± 0.056	0.257 ± 0.075
CAACAGCAAUAUUACGGCCA	-2.55 ± 0.15	-1.59 ± 0.14
CAACAGCAAUAUUACGGCUC	-1.38 ± 0.078	-0.333 ± 0.098
CAACAGCAAUAUUACGGGGA	-2.24 ± 0.093	-2.14 ± 0.11
CAACAGCAAUAUUACGGGGU	-4.57 ± 0.23	-2.79 ± 0.15
CAACAGCAAUAUUACGGUAG	-0.633 ± 0.059	-0.746 ± 0.068
CAACAGCAAUAUUACGUCGC	-2.75 ± 0.17	-2.07 ± 0.18
CAACAGCAAUAUUACGUGCA	-2.72 ± 0.11	-1.57 ± 0.092
CAACAGCAAUAUUACGUUGG	-2.86 ± 0.096	-1.5 ± 0.095
CAACAGCAAUAUUACGUUUG	-3.3 ± 0.077	-2.11 ± 0.094
CAACAGCAAUAUUACGUUUU	-3.57 ± 0.11	-2.19 ± 0.11
CAAGAGCAAUAUUACGAAUC	-3.46 ± 0.41	-1.26 ± 0.38
CAAGAGCAAUAUUACGAGCC	-4.42 ± 0.34	-2.31 ± 0.32
CAAGAGCAAUAUUACGAUAG	-1.53 ± 0.11	-0.239 ± 0.13
CAAGAGCAAUAUUACGAUUG	-2.26 ± 0.13	-1.86 ± 0.15
CAAGAGCAAUAUUACGCAUA	-2.71 ± 0.31	-2.3 ± 0.37
CAAGAGCAAUAUUACGCGUU	-3.61 ± 0.22	-3.05 ± 0.25
CAAGAGCAAUAUUACGCUAC	-2.4 ± 0.26	-1.66 ± 0.38
CAAGAGCAAUAUUACGCUCA	-2.63 ± 0.17	-1.08 ± 0.2
CAAGAGCAAUAUUACGCUCG	-2.16 ± 0.44	-1.26 ± 0.41
CAAGAGCAAUAUUACGGAAG	-1.75 ± 0.13	-1.31 ± 0.19
